According to PMC3954457 (The Journal of biological chemistry, 2006):

T1: human dihydrolipoamide dehydrogenase (E3) (human, UniProt P09622 36-509)
T1 sequence: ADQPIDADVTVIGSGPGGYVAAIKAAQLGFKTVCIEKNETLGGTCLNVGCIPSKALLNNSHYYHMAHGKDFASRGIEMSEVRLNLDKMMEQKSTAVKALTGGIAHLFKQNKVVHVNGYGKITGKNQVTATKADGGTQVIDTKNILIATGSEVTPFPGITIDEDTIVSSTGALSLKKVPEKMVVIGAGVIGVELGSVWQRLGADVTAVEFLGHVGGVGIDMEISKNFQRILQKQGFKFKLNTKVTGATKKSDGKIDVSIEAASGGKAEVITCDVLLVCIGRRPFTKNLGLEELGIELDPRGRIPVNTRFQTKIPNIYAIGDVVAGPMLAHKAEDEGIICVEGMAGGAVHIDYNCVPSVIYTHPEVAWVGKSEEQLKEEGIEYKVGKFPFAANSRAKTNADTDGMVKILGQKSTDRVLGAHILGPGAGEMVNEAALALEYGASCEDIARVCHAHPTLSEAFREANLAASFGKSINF


Key:
[1] = target: X di-domain (XDD) of human E3 binding protein: lipoyl domain and subunit binding domain (human); assay: ITC
[2] = target: T1, human dihydrolipoamide dehydrogenase …; assay: native gel or EMSA

dH [1]	stoichiometry N [1]	stoichiometry N [2]	Molecule
-12.1 kcal/mol	0.5 E3:XDD	–	human dihydrolipoamide dehydrogenase (E3) (from UniProt P09622 36-509) (enzyme)
–	–	2 XSBD:E3	X subunit binding domain (XSBD) of human E3 binding protein (domain or fragment) QISIPVKKEHIPGTLRFRLSPAARNILEKHSLDASQGTATGPRGIFTKEDALKLVQLKQTGKITE
